What follows are substances tested against CCR5-SNAP labeled with Alexa-488 (CCR5-SNAP-488) (human) (UniProt P51681) (assay: fluorescence cross-correlation spectroscopy).
Sequence of UniProt P51681 (P51681 whole entry): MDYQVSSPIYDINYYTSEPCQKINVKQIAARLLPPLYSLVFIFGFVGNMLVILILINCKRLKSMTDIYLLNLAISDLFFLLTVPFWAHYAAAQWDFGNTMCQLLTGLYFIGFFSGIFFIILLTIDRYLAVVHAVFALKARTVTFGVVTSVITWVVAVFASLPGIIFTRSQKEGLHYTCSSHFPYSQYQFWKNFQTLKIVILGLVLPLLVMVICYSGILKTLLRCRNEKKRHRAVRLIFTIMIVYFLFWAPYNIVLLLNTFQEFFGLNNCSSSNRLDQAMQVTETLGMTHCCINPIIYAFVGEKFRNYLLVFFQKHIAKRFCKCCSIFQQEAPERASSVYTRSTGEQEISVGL

Ki [nM]	Kd [nM]	Substance
	0.37	Alexa-647-labeled 5P12-RANTES (5P12-647) (from UniProt P13501 24-91) (ligand)
	10.4	Alexa-647-labeled 6P4-RANTES (6P4-647) (from UniProt P13501 24-91) (ligand)
	6.6	Alexa-647-labeled PSC-RANTES (PSC-647) (from UniProt P13501 24-91) (ligand)

Second part, the substance before the results:

Substance	Ki [nM]	Kd [nM]
5P12-RANTES, non-labeled (from UniProt P13501 24-91) (ligand)	0.14	
6P4-RANTES, non-labeled (from UniProt P13501 24-91) (ligand)	3.5	
Alexa-647-labeled 5P14-RANTES (5P14-647) (from UniProt P13501 24-91) (ligand)		0.48

From paper doi:10.1101/575795
